Measured values reported in article doi:10.1101/2021.07.31.454597 (bioRxiv, 2021).

Tests used:
[1] = molecular target: Cre^Yang (R72E/L115D/R199D) (UniProt P06956); test: native MS
cryo-EM structure = molecular target: the molecule itself; test: cryo-EM structure

Cre^Yin (D33A/A36V/R192A) (from UniProt P06956 1-343) (enzyme)
percent of the 2:1 protein:loxP complexes (ion counts) [1]: 36%

B1: Cre^K201A (enzyme)
chain: MSNLLTVHQNLPALPVDATSDEVRKNLMDMFRDRQAFSEHTWKMLLSVCRSWAAWCKLNNRKWFPAEPEDVRDYLLYLQARGLAVKTIQQHLGQLNMLHRRSGLPRPSDSNAVSLVMRRIRKENVDAGERAKQALAFERTDFDQVRSLMENSDRCQDIRNLAFLGIAYNTLLRIAEIARIRVKDISRTDGGRMLIHIGRTATLVSTAGVEKALSLGVTKLVERWISVSGVADDPNNYLFCRVRKNGVAAPSATSQLSTRALEGIFEATHRLIYGAKDDSGQRYLAWSGHSARVGAARDMARAGVSIPEIMQAGGWTNVNIVMNYIRNLDSETGAMVRLLEDGD
stoichiometry N (cryo-EM structure): 4
